Laboratory results published in patent US20130224779A1, “METHOD FOR LARGE SCALE PREPARATION OF THE ACTIVE DOMAIN OF HUMAN PROTEIN TYROSINE PHOSPHATASE WITHOUT FUSION PROTEIN” (Korea Research Institute of Bioscience and Biotechnology, priority 2007, published 2013).

Tests used:
[1] = Protease (trypsin or chymotrypsin) digestion of PTP active domain, SDS-PAGE; type: physicochemical; details: 37° C., 30 minutes, SDS-PAGE (FIG. 8)
Procedure: Based on the result of Example <1-3-1>, 20 μg of PTP active domain having low solubility and stability was serially diluted from 1:1 to 1:1,000, followed by reaction with trypsin (Sigma, USA) or chymotrypsin (Sigma, USA) at 37° C. for 30 minutes. SDS-PAGE was performed by the same manner as described in Example 3 to confirm digestion.

[2] = Solubility and stability of expressed domain by SDS-PAGE of supernatant and precipitate; type: physicochemical; details: expressed in E. coli, SDS-PAGE (FIG. 9)
Procedure: After cloning the PTP active domain determined in Example <1-2>, it was expressed in E. coli and purified therefrom. After storing for a while, a proper amount of protein solution was ultra-centrifuged to separate supernatant and precipitate. SDS-PAGE was performed with the precipitate by the same manner as described in Example 3 to investigate whether the precipitate contained the target protein, leading to the examination of solubility.
The protein band cut by protease obtained in Example <1-3-2> was transferred to PVDF membrane. The band was cut and treated with a reagent recognizing and digesting N-terminal, followed by HPLC stepwise to arrange amino acids. Mass spectrometry was performed with the band to calculate the mass exactly and select stable domains. The re-designed domains were tested for activity and stability by the same manner as described in Example 4.

| Molecule | stability with increase of protease concentration [1] | solubility [2] | stability [2] |
| --- | --- | --- | --- |
| T38: recombinant PTP active domain; unstable domain 636-979, stable domain 709-979, SEQ. ID. NO: 120 (protein, Amino acid sequence of PTP active domain T38) LAKEWQALCAYQAEPNTCATAQGEGNIKKNRHPDFLPYDHARIKLKVESSPSRSDYINASPIIEHDPRMPAYIATQGPLSHTIADFWQMVWESGCTVIVMLTPLVEDGVKQCDRYWPDEGASLYHVYEVNLVSEHIWCEDFLVRSFYLKNVQTQETRTLTQFHFLSWPAEGTPASTRPLLDFRRKVNKCYRGRSCPIIVHCSDGAGRTGTYILIDMVLNRMAKGVKEIDIAATLEHVRDQRPGLVRSKDQFEFALTAVAEEVNAILKALP | maintained |  |  |
| re-designed pk7: re-designed stable PTP active domain of pk7 (MKP2), amino acids 174-338, SEQ. ID. NO: 136 (protein, Amino acid sequence of PTP active domain pk7) SATEPLDLGCSSCGTPLHDQGGPVEILPFLYLGSAYHAARRDMLDALGITALLNVSSDCPNHFEGHYQYKCIPVEDNHKADISSWFMEAIEYIDAVKDCRGRVLVHCQAGISRSATICLAYLMMKKRVRLEEAFEFVKQRRSIISPNFSFMGQLLQFESQVLATS |  | high | high |
| full length pk7: full length pk7 (MKP2), unstable domain amino acids 1-394 (protein, UniProt Q13115 1-394, looked up, full-length) MVTMEELREMDCSVLKRLMNRDENGGGAGGSGSHGTLGLPSGGKCLLLDCRPFLAHSAGYILGSVNVRCNTIVRRRAKGSVSLEQILPAEEEVRARLRSGLYSAVIVYDERSPRAESLREDSTVSLVVQALRRNAERTDICLLKGGYERFSSEYPEFCSKTKALAAIPPPVPPSATEPLDLGCSSCGTPLHDQGGPVEILPFLYLGSAYHAARRDMLDALGITALLNVSSDCPNHFEGHYQYKCIPVEDNHKADISSWFMEAIEYIDAVKDCRGRVLVHCQAGISRSATICLAYLMMKKRVRLEEAFEFVKQRRSIISPNFSFMGQLLQFESQVLATSCAAEAASPSGPLRERGKTPATPTSQFVFSFPVSVGVHSAPSSLPYLHSPITTSPSC |  | low | low |
